In US20180016620A1 (KITE PHARMA, published 2018):
No end group written: not given here.

Key:
[1] = molecular target: T1, full length 18 mer linker peptide GSTSGSGKPGSGEGSTKG (also: biotin on N-terminus or on added C-terminal Lys, which not given here); experiment: ELISA: antibody captured on Protein G plate, biotinylated peptide, streptavidin-HRP, chemiluminescence; y axis 0 to 7000000 without unit
T1 construct: Synthetic linker peptide; also called full-length linker peptide; Whitlow linker
T1 peptide: GSTSGSGKPGSGEGSTKG
Procedure: (§1) The antibodies (i.e., antigen binding molecules) were epitope mapped via ELISA using the full length peptide, […] (SEQ ID NO:1), and variants truncated on either the N- or C-terminus and containing either a biotin moiety on the N-terminus, or a lysine residue with a biotin moiety on the C-terminus. The antibodies were captured in 96-well plate format using plates pre-coated with Protein G (Pierce). The plates were washed 6× in PBST buffer followed by incubation with target peptides. An additional 6× wash was performed with PBST and the antibodies were further incubated with streptavidin-HRP. Upon a final 6× wash in PBST, signal was detected and quantified via enhanced chemiluminescense kit (ECL, from GE Healthcare) and a Varioskan Flash plate reader (Thermo Fisher).

[2] = molecular target: T2, GSTSGSGKPGSGEGST SEQ ID NO: 485 (also: biotin on N-terminus or on added C-terminal Lys, which not given here); experiment: as above
T2 construct: also called 18 mer lacking its 2 C-terminal residues
T2 peptide: GSTSGSGKPGSGEGST
Procedure: as §1

[3] = molecular target: T3, GSGKPGSGEGSTKG SEQ ID NO: 489 (also: biotin on N-terminus or on added C-terminal Lys, which not given here); experiment: as above
T3 construct: also called 18 mer lacking its 4 N-terminal residues
T3 peptide: GSGKPGSGEGSTKG
Procedure: as §1

[4] = molecular target: T4, GSTSGSGKPGSGEG SEQ ID NO: 486 (also: biotin on N-terminus or on added C-terminal Lys, which not given here); experiment: as above
T4 construct: also called 18 mer lacking its 4 C-terminal residues
T4 peptide: GSTSGSGKPGSGEG
Procedure: as §1

[5] = molecular target: T5, SEQ ID NO: 496 GSTSGSGKPGSGE (also: biotin on N-terminus or on added C-terminal Lys, which not given here); experiment: epitope mapping ELISA: antibody captured on Protein G plate, biotinylated peptide, streptavidin-HRP, chemiluminescence
T5 peptide: GSTSGSGKPGSGE
Procedure: as §1

[6] = molecular target: T6, SEQ ID NO: 489 GSGKPGSGEGSTKG (also: biotin on N-terminus or on added C-terminal Lys, which not given here); experiment: as above
T6 peptide: GSGKPGSGEGSTKG
Procedure: as §1

[7] = molecular target: T7, SEQ ID NO: 485 GSTSGSGKPGSGEGST (also: biotin on N-terminus or on added C-terminal Lys, which not given here); experiment: as above
T7 peptide: GSTSGSGKPGSGEGST
Procedure: as §1

[8] = molecular target: T8, SEQ ID NO: 486 GSTSGSGKPGSGEG (also: biotin on N-terminus or on added C-terminal Lys, which not given here); experiment: as above
T8 peptide: GSTSGSGKPGSGEG
Procedure: as §1

[9] = molecular target: T9, SEQ ID NO: 497 SGKPGSGEGSTKG (also: biotin on N-terminus or on added C-terminal Lys, which not given here); experiment: as above
T9 peptide: SGKPGSGEGSTKG
Procedure: as §1

[10] = molecular target: T10, SEQ ID NO: 490 GKPGSGEGSTKG (also: biotin on N-terminus or on added C-terminal Lys, which not given here); experiment: as above
T10 peptide: GKPGSGEGSTKG
Procedure: as §1

FL_peptide_OVA = molecular target: T11, FL_peptide_OVA (also: conjugated to ovalbumin, site and chemistry not given here); experiment: ELISA as for the peptides of the figure; y axis 0 to 7000000 without unit
T11 construct: not shown: the ovalbumin carrier protein
T11 peptide: GSTSGSGKPGSGEGSTKG
Procedure: as §1

[11] = molecular target: T12, GKPGSGEGSTKG SEQ ID NO: 490 (also: biotin on N-terminus or on added C-terminal Lys, which not given here); experiment: ELISA: antibody captured on Protein G plate, biotinylated peptide, streptavidin-HRP, chemiluminescence; y axis 0 to 7000000 without unit
T12 construct: also called 18 mer lacking its 6 N-terminal residues
T12 peptide: GKPGSGEGSTKG
Procedure: as §1

[12] = molecular target: T13, SEQ ID NO: 498 KPGSGEGSTKG (also: biotin on N-terminus or on added C-terminal Lys, which not given here); experiment: epitope mapping ELISA: antibody captured on Protein G plate, biotinylated peptide, streptavidin-HRP, chemiluminescence
T13 peptide: KPGSGEGSTKG
Procedure: as §1

Measured: binding result

B1: Clone 8 anti-linker antibody (antibody, V domains shown)
VH: QSVEESGGRLVTPGTPLTLTCTASGFTISNLAIIWVRQAPGKGLEYIGDIDGRGDIYCATWAKGRFTISKTSTTLDLRFTSPTTEDTATYFCAVDGDGSGWGDFNFWGPGTLVTVSS
VL: AYDMTQTPASVEVAVGGTVSIKCQASQSISTALAWYQQKPGQPPKLLIYRASTLASGVSSRFKGSGSGTQFTLTISGVECDDAATYYCQQGWSTVNVDNVFGGGTEVVVRD
notes: Rabbit monoclonal from a hybridoma; also called Clone 8-4; 8-4
not listed: [11] | [12]
binds: all other assays above

B2: Clone 16 anti-linker antibody (antibody, V domains shown)
VH: QSLEESGGRLVTPGTPLTLTCTVSGSDISSYHMGWVRQAPGKGLEYIGIIVSSGSAYYATWAKGRFTISRTSTTVDLKITSPTTEDSATYFCARNQYSGYGFSFWGPGTLVTVSS
VL: AVVLTQTPSPVSTAVGGTVTINCQSSHSVYYGDWLAWYQQKPGQPPKLLIYRASNLASGVPSRFKGSGSGTQFTLTISGVQCDDAATYYCLGGYDDDGETAFGGGTEVVVKD
notes: Rabbit monoclonal from a hybridoma; also called Clone 16-6; 16-6
binds: all assays above
